Earlier results on one substance are cited in paper PMC11281341.

The target in the data set is HIV-1 capsid protein (CA) CA (Human immunodeficiency virus 1) (UniProt O93182).
Sequence of HIV-1 capsid protein (CA) CA (Human immunodeficiency virus 1) (O93182 133-363): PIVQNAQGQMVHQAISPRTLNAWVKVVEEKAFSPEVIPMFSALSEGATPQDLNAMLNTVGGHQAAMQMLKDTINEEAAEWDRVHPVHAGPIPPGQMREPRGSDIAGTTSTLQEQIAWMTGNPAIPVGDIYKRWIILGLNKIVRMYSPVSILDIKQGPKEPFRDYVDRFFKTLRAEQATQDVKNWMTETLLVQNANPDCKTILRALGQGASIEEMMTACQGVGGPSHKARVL

Sequence of TRIM5alpha SPRY (Q0PF16 283-497): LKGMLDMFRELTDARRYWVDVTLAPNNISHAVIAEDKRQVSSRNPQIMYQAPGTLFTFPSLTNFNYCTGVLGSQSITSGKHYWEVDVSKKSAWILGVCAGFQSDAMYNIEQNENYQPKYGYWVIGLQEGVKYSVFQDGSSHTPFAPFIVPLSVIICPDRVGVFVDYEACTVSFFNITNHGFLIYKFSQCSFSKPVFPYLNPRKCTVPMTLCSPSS

As a reminder, the Kd is the equilibrium constant for the complex coming apart. For TRIM5alpha SPRY (from UniProt Q0PF16), the dissociation constant Kd was above 1000 µM.
